Measured values from paper PMC10480196, “Glycerol biosynthetic pathway plays an essential role in proliferation and antioxidative defense in the human enteric protozoan parasite Entamoeba histolytica” (Scientific Reports, 2023).

Assays:
Format in all cases: biochemical, Entamoeba histolytica
purified protein [1] = substrate: Nc1ncnc2c1ncn2[C@@H]1O[C@H](COP(=O)(O)OP(=O)(O)O)[C@@H](O)[C@H]1O; test: purified protein; conditions: reverse reaction, 40 mM G3P, 5 mM MgSO4, 1 mM EDTA, 50 mM Tris HCl pH 7.5
purified protein [2] = substrate: O=P(O)(O)OC[C@H](O)CO; test: purified protein; conditions: reverse reaction, 1 mM ADP, 5 mM MgSO4, 1 mM EDTA, 50 mM Tris HCl pH 7.5
[3] = substrate: Nc1ncnc2c1ncn2[C@@H]1O[C@H](COP(=O)(O)OP(=O)(O)OP(=O)(O)O)[C@@H](O)[C@H]1O; test: coupled fluorescence assay (ADP hexokinase, G6P dehydrogenase, diaphorase; resazurin reduction); conditions: forward reaction, 2 mM glycerol, 5 mM MgCl2, 50 mM Tris HCl pH 7.5, 37 °C, 10 mM N-ethylmaleimide
Description: (§1) coupled fluorescence assay (ADP hexokinase, G6P dehydrogenase, diaphorase; resazurin reduction) on EhGK (rEhGK, recombinant E. histolytica glycerol kinase)

[4] = substrate: OCC(O)CO; test: as above; conditions: forward reaction, 2 mM ATP, 5 mM MgCl2, 50 mM Tris HCl pH 7.5, 37 °C, 10 mM N-ethylmaleimide
Description: as §1

B1: EhGK (rEhGK, recombinant E. histolytica glycerol kinase) (Entamoeba histolytica HM-1:IMSS) (protein)
chain: MKYILAIDQGTTSTRVILFDEKCQSIHTEQEEFDSIFPHPGWVEQDPEVIYTSVVNLMKKCLVNTGINKEDIAAIGITNQRETTVMWDKRTGKPIYNAIVWQSKQSGNETSYLMEKGYEEIFQSKTGLVLNPYFSASKIMWIFNNVEGAKALAEEGVLLFGTIDTWIIYNLTGGQSHSTDISNAARTLLFNIYEKKWDDELLAKTNIPKSILPIVKQSSDDFGIVSTIQEFNGIHITGVAGDQQASLFGHGSPIGGCKSTYGTGCFVVKNIGDTIKEIPKGLLATVGWEINGKITYALEGTVMTAGAALKWIRDIGILKDYNEISKIVTSKNGGVYFVPAFQGLGTPYWDDDVRGIIVGLTSGTGKGELVRATLESIALQCAQVIEIMGKINEIKVDGGVSRSDCMLQFQADICNCTVIRLKEKEITAMGAAMLAGLYVHLFKEDELDSMRVIEHVFKPQMSEEERKQIFSVWNKAVESARSFVH
B1 showed a Km (purified protein [1]) of 140 ± 40 µM, a Vmax (purified protein [1]) of 1.2 µmol/min/mg and a Km (purified protein [2]) of 8710 ± 2460 µM. It also gave a Vmax (purified protein [2]) of 1.28 µmol/min/mg, a Km [3] of 230 ± 30 µM and a Vmax [3] of 1.3 µmol/min/mg. It also gave a Km [4] of 160 ± 30 µM and a Vmax [4] of 1.48 µmol/min/mg.
